US20180335433A1, “COMPOSITIONS TARGETING PKC-THETA AND USES AND METHODS OF TREATING PKC-THETA PATHOLOGIES, ADVERSE IMMUNE RESPONSES AND DISEASES” (La Jolla Institute for Allergy and Immunology, priority 2011, published 2018)

Molecular target: CD28, endogenous in primary mouse CD4+ T cells (mouse) (UniProt P31041)
Assay: cell-based or functional assay

Chain of CD28, endogenous in primary mouse CD4+ T cells (mouse) (P31041 20-218): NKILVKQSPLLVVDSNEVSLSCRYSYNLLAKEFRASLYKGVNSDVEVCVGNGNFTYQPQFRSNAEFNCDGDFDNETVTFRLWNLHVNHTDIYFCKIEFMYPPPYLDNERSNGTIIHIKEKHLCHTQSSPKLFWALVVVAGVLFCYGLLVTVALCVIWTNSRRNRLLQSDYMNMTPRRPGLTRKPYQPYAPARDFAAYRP

Work on “Myc-tagged PKCθ V3 domain (aa 282-379 of human PKCθ, N-terminal Myc tag) (from UniProt Q04759 282-379)” yielded a Treg (FoxP3+) differentiation of 4 fold, an inhibition of Th2 differentiation of 75% and an inhibition of Th17 differentiation of 75%.
